The values below are quoted from earlier work in article PMC8894873.

For the data set, the target named is Glu66 (UniProt position 148, FTKKMEENAKK). Put plainly: stability (inferred; the article mentions only a pH dependence of stability).

Usually pKa stands for the negative logarithm of the acid dissociation constant. For the substance “Staphylococcal nuclease V66E variant (Staphylococcus aureus; V66E)”, the pKa is 8.8.
